This passage reports Kd results from US20240026011A1 (published 2024).

B1: h456 (Pro509) (antibody, V domains shown)
VH: QVQLVESGGGLVQPGGSLRLSCAASGSALIINAMGWYRQAPGKQRELVATVTRSGRTNYADSVKGRFTISRDNSKNTLYLQMNSLRAEDTAVYYCNVALWIADGEYDYWGQGTLVTVSS
B2: h445 (Pro512) (antibody, V domains shown)
VH: QVQLVESGGGLVKPGGSLRLSCAASGITFNLHAMRWYRRAPGKQRELVAYISARDWTNYADSVKGRFTISRDNAKNSLYLQMNSLRAEDTAVYYCNTDLVGEDYWGRGTLVTVSS
B3: h476 (Pro510) (antibody, V domains shown)
VH: QVQLVESGGGLVQPGGSLRLSCAASGNIFIINVMGWYRQAPGKQRELVATITNGGRTHYADSVKGRFTISRDNSKNTLYLQMNSLRAEDTAVYYCNANHIELGDYWGQGTLVTVSS
B4: 1058 (Pro1037) (protein)
chain: QVQLQESGGGLVQPGGSLRLTCAASGRAISSYAISWFRQAPGEEREFVAAINWSGTHTNYADSVKGRFTISRDNVKNTVYLQMNSLKPEDTATYFCSRGWSVFDPDYRGQGTQVTVSS
B5: 1091 (Pro1039) (protein)
chain: QVQLQESGGGLVQPGGSLRLSCAASGFTFDDYAMSWVRQAPGKGLEWVSSINWSGTHTDYADSVKGRFTISRDNAKNTLYLQMNSLKSEDSAVYYCVKGWRLTGGYYDSVQGQGTQVTVSS
B6: 1092 (Pro1040) (protein)
chain: B5 chain with P14A, G16A, M34L
B7: 1097 (Pro1041) (protein)
chain: B5 chain with T28I, S35T, L102H, G104D, G105N, D108A, S109G
B8: Pro1043 VIB1139 (bispecific antibody, V domains shown)
VH: QVQLQESGGGLVQPGGSLRLSCAASGFTFDDYAMSWIRQAPGKEMEWVSGINWSGTHTRYADSVKGRFTISRDNAKNTLDLQMNSLISEDTAVYYCARGFAADSRSTRGQGTQVTVSS
B9: h1139 (Pro1060) (protein)
chain: B8 VH with Q5V, L11V, Q13R, T78S, D80Y, I87R, S88A, V93L, Q113L
B10: humanized aHER2 sdAb h1162 (VHH)
VHH: QVQLLESGGGLVQPGGSLRLSCAASGRPFSGNAMGWFRQAPGKEREFVAAISWSGDSTYYADSVKGRFTISRDNSKNTLYLQMNSLRAEDTAVYYCAATRSFYSRTYYTRPSDYNYWGPGTLVTVSS
B11: Pro1047 VIB1162 (bispecific antibody, V domains shown)
VH: B10 VHH with L5Q, P14A, S75D, K76E, L79A, R87K, A88P, L122Q
B12: Pro1045 VIB1159 (bispecific antibody, V domains shown)
VH: QVQLQESGGGLVQAGGSLRLSCATSGRTFSSLAMGWFRQAPGKERELVAGISWSGSTTYYADSVKGRFAISRDNAKNTVYLQMNSLKPEDTAVYYCAARTSSIATIGREYDYWGQGTQVTVSS
B13: h1159 (Pro1062) (antibody, V domains shown)
VH: B12 VH with Q5L, A14P, A75S, V79L, K87R, P88A, Q118L
B14: Pro1036 VIB1055 (bispecific antibody, V domains shown)
VH: B4 chain with A23E, A24V
B15: Pro1038 VIB1059 (bispecific antibody, V domains shown)
VH: B4 chain with N59D, V75A, T93V
B16: Pro1044 VIB1156 (bispecific antibody, V domains shown)
VH: QVQLQESGGGLVQAGGSLKVSCAASRNIGSNYAVGWFRQAPGKEREPVAALRWTGSIIGYDDSLRGRFTISKDDAKNTVYLQMNSLKPEDTGVYYCAARILDRSSYDYWGQGTQVTVSS
B17: 1121 (Pro1042) (protein)
chain: QVQLQESGGGLVQAGGSLRLSCAASGFIFSDYAMTWVRQAPGKGLEWVSSINWSGTHTNYADSVKGRFTISRDNAKKTLYLQMNSLKSEDTAVYYCARGWMVVPDSTRGQGTQVTVSS
B18: 1160 (Pro1046) (antibody, V domains shown)
VH: QVQLQESGGGLVQAGGSLRLSCAASGRTFSNERLGWFRQAPGKERELVAAIRWSGVIIGYADSVRGRFTISRDNAKSTVYLQMNSLRPEDTAVYFCAADRGVYGTWDYWGQGTQVTVSS

Changes are numbered by the printed parent chain.

Sequence of cyno CA9 on cells (A0A2K5VQG9 entry or part of it): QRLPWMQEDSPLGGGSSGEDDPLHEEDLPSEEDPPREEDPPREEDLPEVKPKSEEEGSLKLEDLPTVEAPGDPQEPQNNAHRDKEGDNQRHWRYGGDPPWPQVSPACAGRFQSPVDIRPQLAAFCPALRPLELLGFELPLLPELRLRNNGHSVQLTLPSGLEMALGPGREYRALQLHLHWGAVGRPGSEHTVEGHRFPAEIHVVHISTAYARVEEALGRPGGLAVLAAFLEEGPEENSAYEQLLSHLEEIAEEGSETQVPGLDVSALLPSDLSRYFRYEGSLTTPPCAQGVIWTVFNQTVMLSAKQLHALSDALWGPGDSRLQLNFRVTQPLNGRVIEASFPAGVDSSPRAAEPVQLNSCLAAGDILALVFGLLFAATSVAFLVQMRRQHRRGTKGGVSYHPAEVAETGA

The first assay addresses cyno CA9 on cells (cyno, UniProt A0A2K5VQG9 38-447). Description: affinity; Pro51 format.
The molecule B1 had a Kd of 1.1 nM. The molecule B2 yielded a Kd of 4.9 nM. On to B3, for which the Kd turned out to be 1.2 nM.

The target in a further assay is human CA9 on cells (human, UniProt Q16790 38-459). The experiment in a line: affinity; Pro51 format.
On to B1, for which the Kd was 0.7 nM. On the same count and under the same terms, the result for B2 reads 3.1 nM; that for B3, 1.6 nM.

In another assay the target is human HER2 on cells (human, UniProt P04626 23-1255). Description: kinetic affinity (kon/koff); Pro51 format.
Take B4: binding was characterised by a dissociation constant (Kd) of 8.6 nM.

The next assay addresses cyno HER2 on cells (cynomolgus monkey, UniProt A0A2K5WUT7 1-1225). The experiment in a line: kinetic affinity (kon/koff); Pro51 format.
In the case of B5, the Kd was determined as 8.5 nM. Take B6: binding was characterised by a dissociation constant (Kd) of 4.5 nM. In the case of B7, the Kd was determined as 4.3 nM. Take B8: the Kd worked out at 6.7 nM. Take B9: the Kd was 7.4 nM. In turn, B10 displayed a Kd of 21.8 nM.

Take B11: the equilibrium dissociation constant (Kd) was determined as 21.2 nM.

For the molecule B12, the Kd came out at 17 nM. In turn, B13 came in with a dissociation constant Kd of 37 nM. With B4, the Kd came out at 9.7 nM. In turn, B14 registered a Kd of 69.9 nM. B15 displayed a Kd of 85 nM. Take B16: the Kd came to 9 nM.

B17 displayed a Kd of 4.6 nM. Molecule B18 yielded a Kd of 10.8 nM.
